The values that follow come from the nanobody polyreactivity screen of Harvey et al. (2022).

The data set can be described thus: yeast display, Sf9 membrane polyspecificity reagent, FACS + sequencing; frameworks hold sequencing errors. The essentials:
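A nanobody's polyreactivity label depends on the gate it was sorted from. Yeast display cells were stained with 10% biotinylated, detergent-solubilized Sf9 membrane reagent for 1 hour at 4 °C, enriched on streptavidin microbeads and sorted by FACS. The low and high (top ~1%) gates were set on anti-HA fluorescence for expression and streptavidin fluorescence for reagent binding.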
Turning to “QVQLVESGGGLVQAGGSLRLSCAASGRNFRRYALGLYRQAPGKERELVAAISSGGSTYYADSVKGRFTISRDNAKNTVYLQMNSLKPEDTAVYYCNAKVGAYLNYGYWGQGTQVTVSS”, the “polyreactivity (PSR sort gate)” value is reported as “low polyreactivity”.
Under “QVQLVESGGGLVQAGGSLRLSCAASGRNFSFYAMGWYRQAPGQERELVAAITYTDGSTYADSVKGRFTISRDNAKNTVYLQMNSLKPDDTAVYYFATRYRWTPYDYWGQGTQVTVSS” stands “low polyreactivity”; under “QVQLVESGGGLVQAGGSLRLSCAASGRNFSNYAMGWYRQAPGKERELVAAIRATGTTTYYADSVKGRFTISRDNAKNTVYLQMNSLKPDDTAVYYCAARGSRYRSSGYDYWGQGTQVTVSS”, “high polyreactivity”.
In the case of “QVQLVESGGGLVQAGGSLRLSCAASGRNFWLNAMGWYRPEPGKERELVATISRGGSTNYADSVKGRFTISRDNAKNTVYLQMNSLKPEDTAVYYCAARPYSYYWNSELDYWGQGTQVTVSS” it was “high polyreactivity”; in that of “QVQLVESGGGLVQAGGSLRLSCAASGRNFYGYAMGWYRQAPGKERELVAAISWSGGSTYYADSVKGRFTISRDNAKNTVYLQMNSLKPEDTAVYYCARRYRGGYKYDYWGQGTQVTVSS”, “high polyreactivity”; in that of “QVQLVESGGGLVQAGGSLRLSCAASGRNFYSYVMGWYRQAPGKERELVASIRVSGGSTYYADSVKGRFTISRDNAKNTVYLQMNSLKPEDTAVYYCAAGYRSGVSLWRFYAYYWGQGTQVTVSS”, “high polyreactivity”.
In the case of “QVQLVESGGGLVQAGGSLRLSCAASGRNFYYYAMGWYRQAPGKERELVAAISASGGSTYYADSVKGRFTISRDNAKNTVYLQMNSLKPEDTAVYYCAARATTSQYNYYYWGQGTQVTVSS” it was “high polyreactivity”; in that of “QVQLVESGGGLVQAGGSLRLSCAASGRPFNRNAMGWYRTAPGKERELVASITSRGGSTYYADSVKGRFTISRDNAKNTVYLQMNSLKTEDTAVYYCAGYTRNGDYDYWGQGTQVTFSS”, “high polyreactivity”; in that of “QVQLVESGGGLVQAGGSLRLSCAASGRPSSLMNMGWYRQAPGKERELVAAISTSGGSTYYADSVKGRFTISRDNAKNTVYLQMNSLKPEDTAVYYCAATIGRRSYNQMYYWGQGTQVTVSS”, “high polyreactivity”.
For the sequence “QVQLVESGGGLVQAGGSLRLSCAASGRSFESYAMGWYRQAPGKERELVAAITWSGGDTYYADSVKGRFTISRDNAKNTVYLQMNSLKPEDTAVYYCAKEQGLYSVSPYDYWGQGTQVTVSS”, the “polyreactivity (PSR sort gate)” value is listed as “low polyreactivity”.
Under “QVQLVESGGGLVQAGGSLRLSCAASGRSFIENVKGWYRQAPGKERELVAAIRSAGTTYNADSVKGRFTISRDNAKNTVYLQMNSLKPEDTAVDYCAATNRYYWSYFYQSKYGYWGQGTQVTVSS” stands “low polyreactivity”; under “QVQLVESGGGLVQAGGSLRLSCAASGRSFPAYAMGWYRQAPGKERELVAAISQSGGSTYYADSVKGRFTISRDNAKNTVYLQMNSLKPEDTAVYYCAAGWYVSYYWYDYWGQGTQVTVSS”, “high polyreactivity”; under “QVQLVESGGGLVQAGGSLRLSCAASGRSFPTYAMGWYRQAPGKERELVATISWSGGRTYYADSVKGRFTISRDNAKNTVYLLMNSLKPEDTAVYYCNAYISYRWYRWEYEYWGQGTQVTVSS”, “low polyreactivity”.
Under “QVQLVESGGGLVQAGGSLRLSCAASGRSFPWYGMGWYRQAPGKERELVAAISRTGGNTYYADSVKGRFTISRDNAKNTVYLQMNSLKPEDTAVYYCIAGYYSNRSYFYDYGYWGQGTQVTVSS” stands “high polyreactivity”; under “QVQLVESGGGLVQAGGSLRLSCAASGRSFQGYAMGWYRKAPGKERELVAAISWSGGSTYYADSVKGRFTISRDNAKNTVYLQMNSLKPEDTAVYYCAASYDIYGNYRRYDYWGQGTQVTVSS”, “high polyreactivity”.
In the case of “QVQLVESGGGLVQAGGSLRLSCAASGRSFRRYAMGWYRQAPVKDRELVATNTSNGGSTYYADSVKGRFTISRDNAMHTVDFQLNSLKPEDTAVYYCARDLTYYRSRYDYWGQGTQVTVSS” it was “high polyreactivity”; in that of “QVQLVESGGGLVQAGGSLRLSCAASGRSFSKYAMGWYRQAPGKERDLVAGISRSGGSTYYADSVKGRFTISRDNAKNSVYLQMNSLKPEDTAVYYGAAVRRDYDDVYTEYWGQGTQVNVSS”, “high polyreactivity”; in that of “QVQLVESGGGLVQAGGSLRLSCAASGRSFSLYAMGWYRQAPGKERELVASITGSSTYYADSVKGRFTISRDNAKNTVYLQMNSLKPEDTAVYYCNARTSAGAGVDYWGQGTQVTVSS”, “low polyreactivity”.
Turning to “QVQLVESGGGLVQAGGSLRLSCAASGRSFSYNAMGWYRQAPGKERELVASISGNGGRTYYADSVKGRFTISRDNAKNTVYLQMNSLKPEDTAVYYCAARYYSWGGVQYDYWGQGTQVTVSS”, the “polyreactivity (PSR sort gate)” value is recorded as “high polyreactivity”.
Under “QVQLVESGGGLVQAGGSLRLSCAASGRSFTYYAMGWYRQAPGKERELVATISGSGGSTYYADSVKGRFTISRDNAKNTVYLQMNSLKPEDTAVYYCAATGFIFRGRVRAIPRRYNYWGQGTQVTVSS” stands “high polyreactivity”.
Under “QVQLVESGGGLVQAGGSLRLSCAASGRSFWAYAMGWYRQETGTERELVADITTSGGSTNYADSVKGRFTISRDNAKNTVYLQMNSLKPEDTAVYYCNADPTYHVVNCVGYWGHGTQVTVSS” stands “low polyreactivity”; under “QVQLVESGGGLVQAGGSLRLSCAASGRSFYNYAMGWYRQAPGKERELVAAISGSGGSTYYADSVKGRFTISRDNAKNSVYLQMNSLKPEDTAVYYCSTSGPQYYSRNFDSWGQGTQVTVSS”, “low polyreactivity”.
Under “QVQLVESGGGLVQAGGSLRLSCAASGRSILLNAMGWYRHAPGKERELVAAISRGGSTYYADSVKGRFTISRDNAKYSVYLQMNSLKPEDTAVYYCAARFWISHTHWDAGDYWGQGTQVTVSS” stands “low polyreactivity”; under “QVQLVESGGGLVQAGGSLRLSCAASGRSLYNTMGWYRQAPGKERELVAGINWGGGRTYADSVKGRFTISRDNAKNTVYLQMNSMKPEDTAVYYCAADVNYQSRSHIVDYEYGYWGQGTQVTVSS”, “low polyreactivity”.
As to “QVQLVESGGGLVQAGGSLRLSCAASGRTCDIYAMGWYRQAPGKERELVAAISSGGSTYYADSVKGRFTISRDNAKNTVYLQMNSLKPEDTAVYYCAVRWYDQVSRRGIGYYWGQGTLVTVSS”, the “polyreactivity (PSR sort gate)” value is “low polyreactivity”.
Under “QVQLVESGGGLVQAGGSLRLSCAASGRTCGSYAMGWYRQAPGKERELVAAISLSAGSTYYADSVKGRFTISRDNAKNTVYLQMNSLKPEDTAVYYCAAGTQWYSQVYIYYYWGQGTQVTVSS” stands “low polyreactivity”; under “QVQLVESGGGLVQAGGSLRLSCAASGRTCYSNAMGWYRQAPGKERELVAAITRGASTKYADSVKGRFTISRDNAKNTVYLQMNSLKPEDTAVYYCATARYPRYIYDYWGQGTQVTVSS”, “low polyreactivity”; under “QVQLVESGGGLVQAGGSLRLSCAASGRTFADYAMGWYRQAPGKERELVATIRKSTGTTYYADSVKGRFTISRDNAKNTVYLQMNSLKPEDTAVYYCAAARSRYSRWRVEYWGQGTQVTVSS”, “high polyreactivity”.
Under “QVQLVESGGGLVQAGGSLRLSCAASGRTFAENAMGWYRQAPGKESELVAAISETGSRTYYADSVKGRFTISRDNAKNTVYLQMNSLKPEDTAVYYCAARSWHGVLWSYRHDYWGQGTQVTVSS” stands “low polyreactivity”; under “QVQLVESGGGLVQAGGSLRLSCAASGRTFAFNAMGWYRQAPGKERELVATISWSGGSTYYADSVKGRFTISRDNAKNTVYLQMNSLKPEDTAVYYCGAEYVVYRYRLYGTVAYDYWGQGTQVTVSS”, “high polyreactivity”; under “QVQLVESGGGLVQAGGSLRLSCAASGRTFAFYAMGWYRPAPGKERELVASIRGGGGTNYADSVKGRFTISRDNAKNPVYLQMNSVKPEDTAVYYCAARGYGYRGYYYWGQGTQVTVSS”, “high polyreactivity”.
As to “QVQLVESGGGLVQAGGSLRLSCAASGRTFAFYTMGWYRQAPGKEREFVAAISWSGGSTHYADSVKGRFTISRDNAKNTVYLQMNSLKQEDSAVYYCAAGPFYRFTDGRYKTLDYWGQGTQVTVSS”, the “polyreactivity (PSR sort gate)” value is “high polyreactivity”.
In the case of “QVQLVESGGGLVQAGGSLRLSCAASGRTFAGNAMGWYRQAPGKERELVAAIRRTGGRTYYADSVKGRFTISRDNAKNTVYLQMNSLKPEDTAVYYCNAVNKPYTREYGYDYWGQGTQVTVSS” it was “high polyreactivity”.
Under “QVQLVESGGGLVQAGGSLRLSCAASGRTFAGNAMGWYRQAPGKERELVAAISWSGGRTYYADSVKGRFTISRDNAKNTVYLQMNSLKPEETAVYYCAAVRASSRFRYGYWGQGTQVTVSS” stands “high polyreactivity”; under “QVQLVESGGGLVQAGGSLRLSCAASGRTFALNALGWSRQAPGKERELVAAISWSSGRTYYADSVKGRFTISRDNAKNTVYLQMNSLKPEDTAVYYCAALVAHKGDYWGQGTQVTVSS”, “high polyreactivity”; under “QVQLVESGGGLVQAGGSLRLSCAASGRTFALYAMGWYRQAPGKERELVAAITSGGSTNYADSVKGRFTISRDNAKNTVYVQMNSLKPEDTAVYYCNADDSSKDVIGLDYWGQGTQVTVSS”, “low polyreactivity”.
In the case of “QVQLVESGGGLVQAGGSLRLSCAASGRTFANNAMGWYRQAPGKERELVAAISNGDSTYADSVKGRFTISRDNAKNTVYLQMNSLKPEDTAVYYWATRTKEDYTGDYWGQGTQVTVSS” it was “low polyreactivity”; in that of “QVQLVESGGGLVQAGGSLRLSCAASGRTFAPNAMGRSRQAPGKERELVAAITSIGTRTYYADSVKGRFTISRDNAKNTVYLHKNSLKTEVTAVYYCNKKRNADYDYWGQGTQVTVSS”, “low polyreactivity”; in that of “QVQLVESGGGLVQAGGSLRLSCAASGRTFAPYALGWYRQAPRKERELVAAITNGGSTSYADSVKGRFTISRDNAKNTVYLQMNSLKPEDTAVYYCAADANRYHRQRWSPYKMYYWGQGTQVTVSS”, “low polyreactivity”.
Consider “QVQLVESGGGLVQAGGSLRLSCAASGRTFAPYAMGWYRQAPGKERELVAAISQRGGSTYYADSVKGRFTISRDNAKNTVYLQMNSLKPEDTAIYYCAATKYFYRLSSAFSFGTYGYWGQGTQVTVSS”, for which the “polyreactivity (PSR sort gate)” value is on record as “low polyreactivity”.
